From the nanobody polyreactivity screen of Harvey et al. (2022)

Experiment: yeast display, Sf9 membrane polyspecificity reagent, FACS + sequencing; frameworks hold sequencing errors
Summary of the method: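 After 36–48 hours of galactose induction, yeast (Saccharomyces cerevisiae BJ5465) displaying a synthetic nanobody library were stained at 4 °C for 1 hour with 10% biotinylated, detergent-solubilized Sf9 membrane reagent. Streptavidin microbeads enriched the stained cells before FACS sorting into low and high (top ~1%) gates on anti-HA and streptavidin fluorescence. Each clone's polyreactivity label reflects its gate of origin.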
In the case of “QVQLVESGGGLVQAGGSLRLSCAASGYTFRYNAMGWYKQAPWKDRELVATITRGGSTNYADSVKGRFTISRDNAKNTVYLQMNSLKPEDTEVYYCNKEAAPLGFVPSYYGRDYWGQGTQVTVSS”, the “polyreactivity (PSR sort gate)” value is reported as “low polyreactivity”.
In the case of “QVQLVESGGGLVQAGGSLRLSCAASGYTFRYYAMGWYRQAPGKERELVAAISSSGGNTYYADSVKGRFTISRDNAKNTVYLQMNSLIPEDTAVYYCAARRYQYPGHSLGYYYTDYYWGQGTQVTVSS”, the “polyreactivity (PSR sort gate)” value is reported as “low polyreactivity”.
In the case of “QVQLVESGGGLVQAGGSLRLSCAASGYTFRYYAMGWYRQAPGKERELVARITGRAGSTYYADSVKGRFTISRDNAKNTVYLQMNSLKPEDTAVYYSAASIREGFYWGQGTQVTVSS”, the “polyreactivity (PSR sort gate)” value is reported as “high polyreactivity”.
With “QVQLVESGGGLVQAGGSLRLSCAASGYTFRYYAMVWYRQAPGKEREMVAAINGGDITNYADSVKGRFTISRDNAKNTVYLQMNSLKPVDTAVYYCAADGEDSLWTCYDYDYWGQGTQVTVSS” the “polyreactivity (PSR sort gate)” value was “low polyreactivity”.
In the case of “QVQLVESGGGLVQAGGSLRLSCAASGYTFSFNAMGWYRQAPGKERELVAAINRGTSTNYADSVKGRFTISRDNAKNTVYLQMNSLKPEDTAVYYCAAGFRRSAGRYDLDYWGQGTQVTVSS”, the “polyreactivity (PSR sort gate)” value is reported as “high polyreactivity”.
With “QVQLVESGGGLVQAGGSLRLSCAASGYTFSHYAMGWYRQAPGKERELVAGITWSGGSTYYADSVKGRFTISRDNAKNTVYLQMNSLKPEDTSVYYCAAKYYWYYSYSGIPLFDYWGHGTQVTVSS” the “polyreactivity (PSR sort gate)” value was “low polyreactivity”.
With “QVQLVESGGGLVQAGGSLRLSCAASGYTFSHYAMGWYRQAPGKERELVAGITWSGGSTYYADSVKVRFTISRDNAKNTVYVQMNSLKPEDTSVYYCAAKYYWYYSYSGIPLFDYWGQGTQVTVSS” the “polyreactivity (PSR sort gate)” value was “low polyreactivity”.
For “QVQLVESGGGLVQAGGSLRLSCAASGYTFSVNAMGWYRQAPGKESELVATITSSGGGTYYADSVKGRFTISRDNAKNTVYLQMNSLKPEDTAVYYCAADGYWYGDIYPSDYRWYDYWGQGTQVTVSS”, the “polyreactivity (PSR sort gate)” value was “low polyreactivity”.
For “QVQLVESGGGLVQAGGSLRLSCAASGYTFSVNVMGWYRQAPGKERELVAAISGRGGRTYYADSVKGRFTISRDNAKNTVYLQMNSLKPEDTAVYYCAAVRGKPGRISYPYDYWGQGTQVTVSS”, the “polyreactivity (PSR sort gate)” value was “high polyreactivity”.
For “QVQLVESGGGLVQAGGSLRLSCAASGYTFSWYAMGWYRQAPRKERELVAGIDTSGGSTYYADSVKGRFTISRDNAKNTVYLQMNSLKPEDTAVYYCAAGLLWYSWGFWYYEYGYWGQGTQVTVSS”, the “polyreactivity (PSR sort gate)” value was “low polyreactivity”.
For “QVQLVESGGGLVQAGGSLRLSCAASGYTFSYYAMGWYRQAPGKERELVAAISVRGDSTYYADSVKGRFTISRDYAKNTVYLLMNSLKPEDTAVYYCAARVVRSSYVRYHYWGQGTQVTVSS”, the “polyreactivity (PSR sort gate)” value was “high polyreactivity”.
For “QVQLVESGGGLVQAGGSLRLSCAASGYTFTIYAMGWSRQAPGKERESVASISIDGSTYYADSVKGRFTISRDNAKNTVYLQMNSLKPEDTAGYYCAADYYYYNPGFDYWGQGTQVTVSS”, the “polyreactivity (PSR sort gate)” value was “low polyreactivity”.
In the case of “QVQLVESGGGLVQAGGSLRLSCAASGYTFTIYAMGWYRQAPGKERELVASISIDGSTYYADSVKGRFTISRDNAKNTVYLQMNSLKPEDTAVYYCAADYYYYTPGFDYWGQGTQVTVSS”, the “polyreactivity (PSR sort gate)” value is reported as “low polyreactivity”.
With “QVQLVESGGGLVQAGGSLRLSCAASGYTFVDYAMGWYRQAPGKERELVAAISSSGARTYYAYSVKGRFTISRDNAKNSVYLQMNSLKAEDTAVYYCNTPRPYEITTPEYYYWGQGTQVTVSS” the “polyreactivity (PSR sort gate)” value was “high polyreactivity”.
With “QVQLVESGGGLVQAGGSLRLSCAASGYTFVNYAMGWYRQAPGKEREFVAAISRSGGSTYYADSVKGRFTISRDNAKNTVYLQMNSLKPEDTAVYYCALRGYPPYNYYYWGQGTQVTVSS” the “polyreactivity (PSR sort gate)” value was “high polyreactivity”.
For “QVQLVESGGGLVQAGGSLRLSCAASGYTFVRYAMGWYRQAPGKEREFVASISTSGGSTYYADSVKGRFTISRDNAKNTVYLQMNSLKPEDTAVYYCAAGHVVRRPYLIYDYWGQGTQVTVSS”, the “polyreactivity (PSR sort gate)” value was “high polyreactivity”.
For “QVQLVESGGGLVQAGGSLRLSCAASGYTFVVYAMGWYRPAPGKERELVAAINKSGGSTYYADSVKGRFTISRDNAKNTVYLQMNSLKPEDTAVYYCAAVVWILYSSSRGDYWGQGTQVTVSS”, the “polyreactivity (PSR sort gate)” value was “low polyreactivity”.
For “QVQLVESGGGLVQAGGSLRLSCAASGYTFVYNAMGWYRQAPGKEREFVAAITWSGTSTRYADSVKGRFTISRDNAKYTVYLQMKSLKPEDTAVYYCAARRRSAQSGSYNHWGQGTQVTVSS”, the “polyreactivity (PSR sort gate)” value was “high polyreactivity”.
In the case of “QVQLVESGGGLVQAGGSLRLSCAASGYTFWYNAMGWYIPAPGKERELVAAIRSSGARTYYADSVKGRFTISRDNAKNTVYLQMNSLKPEDTAVYYCAASLRSGGRSHYYWGQGTQVTVSS”, the “polyreactivity (PSR sort gate)” value is reported as “high polyreactivity”.
For “QVQLVESGGGLVQAGGSLRLSCAASGYTFYANAMGWYRQATGKEREFVASITWSGGSTYYADSVKGRFTISRDNAKNTVYLQMNSLKPEDTAVYYCAAESWFKYDYWGQGTQVTVSS”, the “polyreactivity (PSR sort gate)” value was “low polyreactivity”.
For “QVQLVESGGGLVQAGGSLRLSCAASGYTFYFYAMGWSRQAPGKERELVAAITGGGTTSYADSVKGRFTISRDNAKNTVYLQMNSLKPEDTAVYYCNVLFADKSDYWGQGSQVTVSS”, the “polyreactivity (PSR sort gate)” value was “low polyreactivity”.
For “QVQLVESGGGLVQAGGSLRLSCAASGYTFYGYAMGWYRQAPGKERELVATISTGGTTTYADSVKGRFTISRDNAKNTVYLQMNSLKPEDTAVYYCAADANQVRDVHEFYPYLHDYWGQGTQVTVSS”, the “polyreactivity (PSR sort gate)” value was “low polyreactivity”.
With “QVQLVESGGGLVQAGGSLRLSCAASGYTFYPYARGWYRQAPGKGRELVAVITSGDSTYYADSVKGRFTISRDNAKNTVYLQMNSLKPEDSAVYYCNTLGFDYYYYEYDYWVQGTQVTVSS” the “polyreactivity (PSR sort gate)” value was “low polyreactivity”.
For “QVQLVESGGGLVQAGGSLRLSCAASGYTFYVYAMGCYRQAPGKERELVASITSSTSTKYADSVKGRFTISRDNANNTVYLQMNSLKPEDTAVYYCAADSRVPEYRSPKNDYWGQGTQVTVSS”, the “polyreactivity (PSR sort gate)” value was “low polyreactivity”.
In the case of “QVQLVESGGGLVQAGGSLRLSCAASGYTFYVYTMGWYRPARGKERELVAAISGSGTSTYYADSVKRRFTISRDNAKNTVYLQMNSLKPEDTAVYYCNAQDSLTTVPDPEYDYWGQGTQVTVSS”, the “polyreactivity (PSR sort gate)” value is reported as “low polyreactivity”.
For “QVQLVESGGGLVQAGGSLRLSCAASGYTFYVYTMGWYRQAPGKERELVAAISGSGTSTYYADSVKGRFTISRDNAKNTVYLQMNSLKPEDTAVYYCAAEDYSRDVYSYDYWGQGTQVTVSS”, the “polyreactivity (PSR sort gate)” value was “low polyreactivity”.
For “QVQLVESGGGLVQAGGSLRLSCAASGYTGVYALGWYRQAPGKERELVADITSGGNTDYADSVKGRFTISRDNAKNTVYLQMNSLKPEDTAVYYCATPYRRLNTWIYDYWGQGTQVTVSS”, the “polyreactivity (PSR sort gate)” value was “high polyreactivity”.
In the case of “QVQLVESGGGLVQAGGSLRLSCAASGYTIFFNVMGGYRQAPGKERELVAAISYSGGSTNYADSVKGRFTISRDNAKNTVYLQMNSLKPEDTAVYYCNTVRSPPGHVYWGEGTQVTVSS”, the “polyreactivity (PSR sort gate)” value is reported as “low polyreactivity”.
In the case of “QVQLVESGGGLVQAGGSLRLSCAASGYTLADYAMGWYRQAPGKERELVAAISSGGITSYADSVKGRFTISRDNAKNTVYLQMNSLKPEDTAVYYCNAAIVGFTRAYQYDYWGQGTQVTVSS”, the “polyreactivity (PSR sort gate)” value is reported as “high polyreactivity”.
In the case of “QVQLVESGGGLVQAGGSLRLSCAASGYTLDNYAMGWYRQAPGKERELVAGITFSGGSTFYADSVKGRFTISRDNAKNTVYLQMNSLKPEDTAVYYCAADAEFQADHKYGYWGQGTQVTVSS”, the “polyreactivity (PSR sort gate)” value is reported as “low polyreactivity”.
In the case of “QVQLVESGGGLVQAGGSLRLSCAASGYTLFRNAMGWYRQAPGKERELVAAISRSGARTYYADSVKGRFTISRDNAKTTVYLQMNSLKPDYTAVYYCAAVIKWTKDDYWGQGTQVTVSS”, the “polyreactivity (PSR sort gate)” value is reported as “high polyreactivity”.
In the case of “QVQLVESGGGLVQAGGSLRLSCAASGYTLKYYAMGWYRQAPGKERELVAVISRGGSTYYADSVKGRFTISRDNAKNTVDLQMNSLKPEDTAVYYCAKRPTQGYYPYGYWGQGTQVTVSS”, the “polyreactivity (PSR sort gate)” value is reported as “high polyreactivity”.
With “QVQLVESGGGLVQAGGSLRLSCAASGYTLQTYAMGWYRQAPGKERELVAAISYRGGRTYYADSVKGRFTISRDNAKNTVYLQMNSLKPEDTAVYYCATRVRYKDYPYSIRYYWGQGTQVTVSS” the “polyreactivity (PSR sort gate)” value was “high polyreactivity”.
In the case of “QVQLVESGGGLVQAGGSLRLSCAASGYTLRIYAMGWYRQAPGKERELVAAISRGGGTTRYADSVKGRFTISRDNAKNTVYLQMNSLKPEDTAVYYCNKDVYGYSRTGPRGYDYWGQGTQVTVSS”, the “polyreactivity (PSR sort gate)” value is reported as “high polyreactivity”.
With “QVQLVESGGGLVQAGGSLRLSCAASGYTLSLNAMGWYRQAPGKERELVAVISWNGGRTRYADSVKGRFTISRDNAKNTVYLQMNSLKPEDTAVYYCNADIYARTYAGYYQWRPYDYWGQGTQVTVSS” the “polyreactivity (PSR sort gate)” value was “high polyreactivity”.
In the case of “QVQLVESGGGLVQAGGSLRLSCAASGYTLYLNAMGWYSQAPGKERELVARISGGGSTNYADYVKGRFTMSRDNAKNTVYLQMNSLKPEDTAVYYCAATIFAYGYRSFKLDYWGQGTQVTVSS”, the “polyreactivity (PSR sort gate)” value is reported as “low polyreactivity”.
With “QVQLVESGGGLVQAGGSLRLSCAASGYTRFYAMGWYRQAPGKERELVAAISSSGGTTYYADSVKGRFTISRDNAKNTVYLQMNSLKPEDTAVYYCAKYVSYSRTLYDYWGQGTQVTVSS” the “polyreactivity (PSR sort gate)” value was “high polyreactivity”.
In the case of “QVQLVESGGGLVQAGGSLRLSCAASGYTSRSNAMGWYRQAPGKERELVAAIRGGGNTKYADSVKGRFTISRDTAKNTVYLQMNSLKPEDTAVYYCAVVTGSFRTRYTYYYWGLGTQVTVSS”, the “polyreactivity (PSR sort gate)” value is reported as “high polyreactivity”.
In the case of “QVQLVESGGGLVQAGGSLRLSCAASGYTSRTNAMGWYIQAPGKERELVAAITWRGTRTYYADSVKGRFTISRDNAKNTVYLQMNSLKPEDTAVYYCATQWIRKYDYWGQGTQVTVSS”, the “polyreactivity (PSR sort gate)” value is reported as “high polyreactivity”.
With “QVQLVESGGGLVQAGGSLRLSCAASGYTSYVYAMGWYRQAPGKERELVAAISLRTASTYYADSVKGRFTISRDTAQKTVYVQMNSLKPEDTAVYYCARGRETYRYSYRLNYWGQGTQVTVSS” the “polyreactivity (PSR sort gate)” value was “high polyreactivity”.
For “QVQLVESGGGLVQAGGSLRLSCAASGYTVAFYDMGWYRQAPRKERELVAAISASGGSTYYADSVKGRFTISRDNAKNTVYLQMNSLKPEDTAVYYCAARSKYRGDMDYWGQGTQVTVSS”, the “polyreactivity (PSR sort gate)” value was “high polyreactivity”.
For “QVQLVESGGGLVQAGGSLRLSCAASGYTYEYYAMGWYRQAPGKERELVAAISWSGGDTYYADSVKGRFTISRDNAKNTVYIQMNSLKPEDTAVYYCNAVLYTYYYYANWYGAYDYWGQGTQVTVCS”, the “polyreactivity (PSR sort gate)” value was “low polyreactivity”.
With “QVQLVESGGGLVQAGGSLRLSCAASGYTYGYNAMGSYRQAPGKERELVAAITKNGGSTYYADSVKGRFTISRDNAKNTVYLQMNSLKPEDTAVYYCAARIYYSRTFGYYYWGQGTQVTVSS” the “polyreactivity (PSR sort gate)” value was “high polyreactivity”.
